Results published in the supplement of paper PMC12458215.
± gives the uncertainty stated by the source.

system: HEK293T; assay: plasma membrane surface immunostaining intensity (anti-HA, deep receptor scanning) (arbitrary fluorescence units); higher = higher plasma membrane expression; conditions: GPCR class: A

**Q.** For “MALLLVSLLAFLSLGSGCHHRICHCSNRVFLCQESKVTEIPSDLPRNAIELRFVLTKLRVIQKGAFSGFGDLEKIEISQNDVLEVIEADVFSNLPKLHEIRIEKANNLLYINPEAFQNLPNLQYLLISNTGIKHLPDVHKIHSLQKVLLDIQDNINIHTIERNSFVGLSFESVILWLNKNGIQEIHNCAFNGTQLDELNLSDNNNLEELPNDVFHGASGPVILDISRTRIHSLPSYGLENLKKLRARSTYNLKKLPTLEKLVALMEASLTYPSHCCAFANWRRQISELHPICNKSILRQEVDYMTQARGQRSSLAEDNESSYSRGFDMTYTEFDYDLCNEVVDVTCSPKPDAFNPCEDIMGYNILRVLIWFISILAITGNIIVLVILTTSQYKLTVPRFLMCNLAFADLCIGIYLLLIASVDIHTKSQYHNYAIDWQTGAGCDAAGFFTVFASELSVYTLTAITLERWHTITHAMQLDCKVQLRHAASVMVMGWIFAFAAALFPIFGISSYMKVSICLPMDIDSPLSQLYVMSLLVLNVLAFVVICGCYIHIYLTVRNPNIVSSSSDTRIAKRMAMLIFTDFLCMAPISFFAISASLKVPLITVSKAKILLVLFHPINSCANPFLYAIFTKNFRRDFFILLSKCGCYEMQAQIYRTETSSTVHNTHPRNGHCSSAPRVTSGSTYILVPLSHLAQN [FSHR]”, which “plasma membrane surface immunostaining intensity” value is on record?
**A.** 378 ± 44

**Q.** How did the “plasma membrane surface immunostaining intensity” value turn out when “MALTPESPSSFPGLAATGSSVPEPPGGPNATLNSSWASPTEPSSLEDLVATGTIGTLLSAMGVVGVVGNAYTLVVTCRSLRAVASMYVYVVNLALADLLYLLSIPFIVATYVTKEWHFGDVGCRVLFGLDFLTMHASIFTLTVMSSERYAAVLRPLDTVQRPKGYRKLLALGTWLLALLLTLPVMLAMRLVRRGPKSLCLPAWGPRAHRAYLTLLFATSIAGPGLLIGLLYARLARAYRRSQRASFKRARRPGARALRLVLGIVLLFWACFLPFWLWQLLAQYHQAPLAPRTARIVNYLTTCLTYGNSCANPFLYTLLTRNYRDHLRGRVRGPGSGGGRGPVPSLQPRARFQRCSGRSLSSCSPQPTDSLVLAPAAPARPAPEGPRAPA [UTS2R]” was run?
**A.** 2430 ± 120

**Q.** How did the “plasma membrane surface immunostaining intensity” value turn out when “MANFTPVNGSSGNQSVRLVTSSSHNRYETVEMVFIATVTGSLSLVTVVGNILVMLSIKVNRQLQTVNNYFLFSLACADLIIGAFSMNLYTVYIIKGYWPLGAVVCDLWLALDYVVSNASVMNLLIISFDRYFCVTKPLTYPARRTTKMAGLMIAAAWVLSFVLWAPAILFWQFVVGKRTVPDNQCFIQFLSNPAVTFGTAIAAFYLPVVIMTVLYIHISLASRSRVHKHRPEGPKEKKAKTLAFLKSPLMKQSVKKPPPGEAAREELRNGKLEEAPPPALPPPPRPVADKDTSNESSSGSATQNTKERPATELSTTEATTPAMPAPPLQPRALNPASRWSKIQIVTKQTGNECVTAIEIVPATPAGMRPAANVARKFASIARNQVRKKRQMAARERKVTRTIFAILLAFILTWTPYNVMVLVNTFCQSCIPDTVWSIGYWLCYVNSTINPACYALCNATFKKTFRHLLLCQYRNIGTAR [CHRM4]” was run?
**A.** 952 ± 190

**Q.** How did the “plasma membrane surface immunostaining intensity” value turn out when “MANSASPEQNQNHCSAINNSIPLMQGNLPTLTLSGKIRVTVTFFLFLLSATFNASFLLKLQKWTQKKEKGKKLSRMKLLLKHLTLANLLETLIVMPLDGMWNITVQWYAGELLCKVLSYLKLFSMYAPAFMMVVISLDRSLAITRPLALKSNSKVGQSMVGLAWILSSVFAGPQLYIFRMIHLADSSGQTKVFSQCVTHCSFSQWWHQAFYNFFTFSCLFIIPLFIMLICNAKIIFTLTRVLHQDPHELQLNQSKNNIPRARLKTLKMTVAFATSFTVCWTPYYVLGIWYWFDPEMLNRLSDPVNHFFFLFAFLNPCFDPLIYGYFSL [GNRHR]” was run?
**A.** 160 ± 34

**Q.** “MANYTLAPEDEYDVLIEGELESDEAEQCDKYDAQALSAQLVPSLCSAVFVIGVLDNLLVVLILVKYKGLKRVENIYLLNLAVSNLCFLLTLPFWAHAGGDPMCKILIGLYFVGLYSETFFNCLLTVQRYLVFLHKGNFFSARRRVPCGIITSVLAWVTAILATLPEFVVYKPQMEDQKYKCAFSRTPFLPADETFWKHFLTLKMNISVLVLPLFIFTFLYVQMRKTLRFREQRYSLFKLVFAIMVVFLLMWAPYNIAFFLSTFKEHFSLSDCKSSYNLDKSVHITKLIATTHCCINPLLYAFLDGTFSKYLCRCFHLRSNTPLQPRGQSAQGTSREEPDHSTEV [CCRL2]” was tested. Which “plasma membrane surface immunostaining intensity” value did it give?
**A.** 569 ± 46

**Q.** With “MAQQWSLQRLAGRHPQDSYEDSTQSSIFTYTNSNSTRGPFEGPNYHIAPRWVYHLTSVWMIFVVIASVFTNGLVLAATMKFKKLRHPLNWILVNLAVADLAETVIASTISVVNQVYGYFVLGHPMCVLEGYTVSLCGITGLWSLAIISWERWMVVCKPFGNVRFDAKLAIVGIAFSWIWAAVWTAPPIFGWSRYWPHGLKTSCGPDVFSGSSYPGVQSYMIVLMVTCCITPLSIIVLCYLQVWLAIRAVAKQQKESESTQKAEKEVTRMVVVMVLAFCFCWGPYAFFACFAAANPGYPFHPLMAALPAFFAKSATIYNPVIYVFMNRQFRNCILQLFGKKVDDGSELSSASKTEVSSVSSVSPA [OPN1MW3]” as the sequence, how does the “plasma membrane surface immunostaining intensity” value read?
**A.** 288 ± 18

**Q.** For “MAQQWSLQRLAGRHPQDSYEDSTQSSIFTYTNSNSTRGPFEGPNYHIAPRWVYHLTSVWMIFVVTASVFTNGLVLAATMKFKKLRHPLNWILVNLAVADLAETVIASTISIVNQVSGYFVLGHPMCVLEGYTVSLCGITGLWSLAIISWERWMVVCKPFGNVRFDAKLAIVGIAFSWIWAAVWTAPPIFGWSRYWPHGLKTSCGPDVFSGSSYPGVQSYMIVLMVTCCIIPLAIIMLCYLQVWLAIRAVAKQQKESESTQKAEKEVTRMVVVMIFAYCVCWGPYTFFACFAAANPGYAFHPLMAALPAYFAKSATIYNPVIYVFMNRQFRNCILQLFGKKVDDGSELSSASKTEVSSVSSVSPA [OPN1LW]”, which “plasma membrane surface immunostaining intensity” value is on record?
**A.** 261 ± 14

same assay, conditions: GPCR class: A (Olfactory)

**Q.** How did the “plasma membrane surface immunostaining intensity” value turn out when “MANITRMANHTGKLDFILMGLFRRSKHPALLSVVIFVVFLKALSGNAVLILLIHCDAHLHSPMYFFISQLSLMDMAYISVTVPKMLLDQVMGVNKVSAPECGMQMFLYLTLAGSEFFLLATMAYDRYVAICHPLRYPVLMNHRVCLFLASGCWFLGSVDGFMLTPITMSFPFCRSWEIHHFFCEVPAVTILSCSDTSLYETLMYLCCVLMLLIPVTIISSSYLLILLTVHRMNSAEGRKKAFATCSSHLTVVILFYGAAVYTYMLPSSYHTPEKDMMVSVFYTILTPVLNPLIYSLRNKDVMGALKKMLTVRFVL [OR2T5]” was run?
**A.** 121 ± 14

**Q.** With “MANITRMANHTGRLDFILMGLFRQSKHPALLSVVIFVVFLKALSGNAVLILLIHCDAHLHSPMYFFISQLSLMDMAYISVTVPKMLLDQVMGVNKVSAPECGMQMFLYLTLAGSEFFLLATMAYDRYVAICHPLRYPVLMNHRVCLFLASGCWFLGSVDGFMLTPITMSFPFCRSWEIHHFFCEVPAVTILSCSDTSLYETLMYLCCVLMLLIPVTIISSSYLLILLTVHRMNSAEGRKKAFATCSSHLTVVILFYGAAVYTYMLPSSYHTPEKDMMVSVFYTILTPVLNPLIYSLRNKDVMGALKKMLTVRFVL [OR2T29]” as the sequence, how does the “plasma membrane surface immunostaining intensity” value read?
**A.** 131 ± 21

**Q.** For “MANVTLVTGFLLMGFSNIQKLRILYGVLFLLIYLAALMSNLLIITLITLDVKLQTPMYFFLKNLSFLDVFLVSVPIPKFIVNNLTHNNSISILGCAFQLLLMTSFSAGEIFILTAMSYDRYVAICCPLNYEVIMNTGVCVLMASVSWAIGGLFGTAYTAGTFSMPFCGSSVIPQFFCDVPSLLRISCSETLMVIYAGIGVGACLSISCFICIVISYIYIFSTVLKIPTTKGQSKAFSTCFPHLTVFTVFIITAYFVYLKPPSNSPSVIDRLLSVIYTVMPPVFNPVTYSLRNNDMKCALIRLLQKTYGQEAYFI [OR14A2]”, which “plasma membrane surface immunostaining intensity” value is on record?
**A.** 133 ± 42

**Q.** “MARENHSLAAEFILIGFTNYPELKTLLFVVFSAIYLVTMVGNLGLVALIYVERRLLTPMYIFLGNLALMDSCCSCAVTPKMLENFFSEDRIISLYECMAQFYFLCLAETTDCFLLATMAYDRYVAICHPLQYHTMMSKTLCIRMTTGAFKAGNLHSMIHVGLLLRLTFCRSNKIHHFFCDILPLYRLSCTDPSINELMIYIFSIPIQIFTIATVLISYLCILLTVFKMKSKEGRGKAFSTCASHFLSVSIFYICLLMYIGPSEEGDKDTPVAIFYAIVIPLLNPFIYSLRNKEVINVLKKIMRNYNILKQTCSIANLFLIY [OR5K4]” was tested. Which “plasma membrane surface immunostaining intensity” value did it give?
**A.** 254 ± 110

**Q.** With “MARENSTFNSDFILLGIFNHSPTHTFLFFLVLAIFSVAFMGNSVMVLLIYLDTQLHTPMYLLLSQLSLMDLMLICTTVPKMAFNYLSGSKSISMAGCATQIFFYTSLLGSECFLLAVMAYDRYTAICHPLRYTNLMSPKICGLMTAFSWILGSTDGIIDVVATFSFSYCGSREIAHFFCDFPSLLILSCSDTSIFEKILFICCIVMIVFPVAIIIASYARVILAVIHMGSGEGRRKAFTTCSSHLLVVGMYYGAALFMYIRPTSDRSPTQDKMVSVFYTILTPMLNPLIYSLRNKEVTRAFMKILGKGKSGE [OR2M3]” as the sequence, how does the “plasma membrane surface immunostaining intensity” value read?
**A.** 138 ± 19

same assay, conditions: GPCR class: B

**Q.** For “MAGVVHVSLAALLLLPMAPAMHSDCIFKKEQAMCLEKIQRANELMGFNDSSPGCPGMWDNITCWKPAHVGEMVLVSCPELFRIFNPDQVWETETIGESDFGDSNSLDLSDMGVVSRNCTEDGWSEPFPHYFDACGFDEYESETGDQDYYYLSVKALYTVGYSTSLVTLTTAMVILCRFRKLHCTRNFIHMNLFVSFMLRAISVFIKDWILYAEQDSNHCFISTVECKAVMVFFHYCVVSNYFWLFIEGLYLFTLLVETFFPERRYFYWYTIIGWGTPTVCVTVWATLRLYFDDTGCWDMNDSTALWWVIKGPVVGSIMVNFVLFIGIIVILVQKLQSPDMGGNESSIYLRLARSTLLLIPLFGIHYTVFAFSPENVSKRERLVFELGLGSFQGFVVAVLYCFLNGEVQAEIKRKWRSWKVNRYFAVDFKHRHPSLASSGVNGGTQLSILSKSSSQIRMSGLPADNLAT [ADCYAP1R1]”, which “plasma membrane surface immunostaining intensity” value is on record?
**A.** 6416 ± 29

same assay, conditions: GPCR class: F

**Q.** Which “plasma membrane surface immunostaining intensity” value does the source give for “MAMTWIVFSLWPLTVFMGHIGGHSLFSCEPITLRMCQDLPYNTTFMPNLLNHYDQQTAALAMEPFHPMVNLDCSRDFRPFLCALYAPICMEYGRVTLPCRRLCQRAYSECSKLMEMFGVPWPEDMECSRFPDCDEPYPRLVDLNLAGEPTEGAPVAVQRDYGFWCPRELKIDPDLGYSFLHVRDCSPPCPNMYFRREELSFARYFIGLISIICLSATLFTFLTFLIDVTRFRYPERPIIFYAVCYMMVSLIFFIGFLLEDRVACNASIPAQYKASTVTQGSHNKACTMLFMILYFFTMAGSVWWVILTITWFLAAVPKWGSEAIEKKALLFHASAWGIPGTLTIILLAMNKIEGDNISGVCFVGLYDVDALRYFVLAPLCLYVVVGVSLLLAGIISLNRVRIEIPLEKENQDKLVKFMIRIGVFSILYLVPLLVVIGCYFYEQAYRGIWETTWIQERCREYHIPCPYQVTQMSRPDLILFLMKYLMALIVGIPSVFWVGSKKTCFEWASFFHGRRKKEIVNESRQVLQEPDFAQSLLRDPNTPIIRKSRGTSTQGTSTHASSTQLAMVDDQRSKAGSIHSKVSSYHGSLHRSRDGRYTPCSYRGMEERLPHGSMSRLTDHSRHSSSHRLNEQSRHSSIRDLSNNPMTHITHGTSMNRVIEEDGTSA [FZD3]” here?
**A.** 177 ± 57

**Q.** With “MARPDPSAPPSLLLLLLAQLVGRAAAASKAPVCQEITVPMCRGIGYNLTHMPNQFNHDTQDEAGLEVHQFWPLVEIQCSPDLRFFLCSMYTPICLPDYHKPLPPCRSVCERAKAGCSPLMRQYGFAWPERMSCDRLPVLGRDAEVLCMDYNRSEATTAPPRPFPAKPTLPGPPGAPASGGECPAGGPFVCKCREPFVPILKESHPLYNKVRTGQVPNCAVPCYQPSFSADERTFATFWIGLWSVLCFISTSTTVATFLIDMERFRYPERPIIFLSACYLCVSLGFLVRLVVGHASVACSREHNHIHYETTGPALCTIVFLLVYFFGMASSIWWVILSLTWFLAAGMKWGNEAIAGYAQYFHLAAWLIPSVKSITALALSSVDGDPVAGICYVGNQNLNSLRGFVLGPLVLYLLVGTLFLLAGFVSLFRIRSVIKQGGTKTDKLEKLMIRIGIFTLLYTVPASIVVACYLYEQHYRESWEAALTCACPGHDTGQPRAKPEYWVLMLKYFMCLVVGITSGVWIWSGKTVESWRRFTSRCCCRPRRGHKSGGAMAAGDYPEASAALTGRTGPPGPAATYHKQVSLSHV [FZD5]” as the sequence, how does the “plasma membrane surface immunostaining intensity” value read?
**A.** 4020 ± 200
